# Source: patent US20030166036
# Columns and labels:
# [1] = target: proPSA (precursor, zymogen form of PSA), recombinant, P07288
# [2] = target: prostate specific antigen (PSA), mature form
# Sequence of prostate specific antigen (PSA), mature form (chain, as listed by the source): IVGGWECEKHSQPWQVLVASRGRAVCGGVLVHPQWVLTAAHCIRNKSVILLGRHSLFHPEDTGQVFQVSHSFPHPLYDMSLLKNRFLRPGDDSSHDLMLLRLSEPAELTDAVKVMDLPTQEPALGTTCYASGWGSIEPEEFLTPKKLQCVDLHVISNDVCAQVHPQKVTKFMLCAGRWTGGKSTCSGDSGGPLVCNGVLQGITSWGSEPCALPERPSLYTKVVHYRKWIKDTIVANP
# Sequence of proPSA (precursor, zymogen form of PSA), recombinant, P07288 (P07288 18-261): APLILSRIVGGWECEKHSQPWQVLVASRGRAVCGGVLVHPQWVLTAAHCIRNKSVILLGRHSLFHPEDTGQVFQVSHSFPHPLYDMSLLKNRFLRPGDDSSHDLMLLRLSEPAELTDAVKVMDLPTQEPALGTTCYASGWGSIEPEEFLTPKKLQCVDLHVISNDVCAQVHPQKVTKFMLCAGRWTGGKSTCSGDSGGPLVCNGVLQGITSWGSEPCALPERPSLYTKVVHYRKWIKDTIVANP
protein,measurement,setting,value
lysyl endopeptidase C (Wako Chemicals USA) (protein) GVSGSCNIDVVCPEGDGRRDIIRAVGAYSKSGTLACTGSLVNNTANDRKMYFLTAHHCGMGTASTAASIVVYWNYQNSTCRAPNTPASGANGDGSMSQTQSGSTVKATYATSDFTLLELNNAANPAFNLFWAGWDRRDQNYPGAIAIHHPNVAEKRISNSTSPTSFVAWGGGAGTTHLNVQWQPSGGVTEPGSSGSPIYSPEKRVLGQLHGGPSSCSATGTNRSDQYGRVFTSWTGGGAAASRLSDWLDPASTGAQFIDGLDSGGGTP,initial rate of cleavage of the Lys182 in pPSA,[1],8% per minute
same,rate of cleavage at Lys145 in pPSA,[1],about 0.6% per minute
same,initial rate of cleavage at Lys182,[2],12% per minute
same,percent of PSA cleaved at Lys182 after 30 minutes of incubation,[2],100% of the PSA had been cleaved at Lys182
same,rate of cleavage at Lys145,[2],0.3% per minute
same,"relative rate of cleavage, Lys182 against Lys145",[2],Lys182 is cleaved approximately 30 times more rapidly than Lys145 by LysC
